The term Kd denotes the equilibrium constant for the complex coming apart. High values mean lower affinity, low ones higher affinity. As a reminder, the koff is a measure of how fast the partners let go of each other. Usually kon stands for the rate constant with which the complex forms. A lower kon goes with slower complex formation.

A value given as a limit tells only on which side of the number the result lay.

Four molecules from patent US20150152166A1 (THERACLONE SCIENCES, published 2015) can be followed below.

The target of assay [1] is GPCMV gB (glycoprotein B of guinea pig CMV strain V545/82) (guinea pig cytomegalovirus). The assay is described as follows: cell-based or functional assay.
The target in assay [2] is T1, CMV gp116 epitope AD2 site peptide SHRANETIYNTTLKYGDTTGTNTTK (CMV (human cytomegalovirus), not fully specified).
T1 construct: Synthetic polypeptide corresponding to the AD2 site of gp116 (glycoprotein B); A biotinylated form was used to select B cells; also called CMV gp116 AD2 peptide
T1 peptide: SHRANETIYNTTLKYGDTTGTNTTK
The assay is described as follows: kinetic affinity measurement, method not stated; antigen taken as CMV gp116 AD2 peptide.

For assay [3], the target named is T1, CMV gp116 epitope AD2 site peptide …. The assay is described as follows: kinetic affinity measurement, method not stated; antigen taken as AD2 peptide; same value as r13, table re-sorted by koff.
For assay [4] the target is unchanged. As to the kind of experiment: kinetic affinity measurement, method not stated; antigen taken as AD2 peptide; same value as r9, table re-sorted by koff.
The target is the same in assay [5]. As to the kind of experiment: kinetic affinity measurement, method not stated; antigen taken as AD2 peptide; same value as r8, table re-sorted by koff.
The target is the same in assay [6]. As to the kind of experiment: kinetic affinity measurement, method not stated; antigen taken as AD2 peptide; same value as r12, table re-sorted by koff.

B1: 2N9 human anti-CMV antibody (antibody, V domains shown)
VH: QVQLVESGGGVVQPGRSLRLSCAASGFTFSSNGIHWVRQAPGKGLDWVAVISSDANDKQYADSVKGRFTISRDNSKNMVYLQMNSLRVEDTAVYFCARDGTCSGGNCYSGLIDYWGRGILVTVSS
VL: EIVLTQSPATLSLSPGERATLSCRASQSVGGYLAWYQQKPGQAPRLLIYDASIRATGIPARFSGSGSGTDFTLTISSLEPEDFAVYYCHQRSNWPPLTFGGGTKVDIKR
notes: Recombinant human IgG, gamma heavy and kappa light chain; (MDMR); If the listing entry has two more residues, the range shifts by 2; also called TCN-202; mAb C-2N9
Turning to B1, the “neutralization of GPCMV V545/82 entry into JH4 cells; highest concentration tested without effect” value in assay [1] was greater than 300 ng/mL. In addition, in assay [2], the Kd came to 11.6 nM, the koff came out at 0.03 s⁻¹ and the on-rate (kon) amounted to 2.6e+06 M⁻¹ s⁻¹. In assay [3], this molecule registered a Kd of 11.6 nM, a koff of 0.03 s⁻¹ and a kon of 2.6e+06 M⁻¹ s⁻¹.

B2: 5P9 human anti-CMV antibody (antibody, V domains shown)
VH: QVQLVESGGGVIQPGRSLRLSCVASKFIFSNHGIHWVRQAPGKGLEWVAVISKDGTNAHYADSVRGRFSISRDNSKDTVFLEMRSLRPEDTAVYYCAREGRCIEEKCYSGQIDYWGQGSLVTVSS
VL: EILLTQSPATLSLSPGERATLSCRASQSVGRYMAWYQQRPGQAPRLLIYDASIRATGIPARFSGSGSGTDFTLTISSLQTEDFAIYYCQQRSSWPPLTFGGGTKVEIKR
notes: Recombinant human IgG, gamma heavy and kappa light chain; also called mAb E-5P9
With B2, in assay [1], the “neutralization of GPCMV V545/82 entry into JH4 cells; highest concentration tested without effect” value was greater than 300 ng/mL. For the same molecule, in assay [2], binding was characterised by a dissociation constant (Kd) of 4.9 nM, the koff stood at 0.00121 s⁻¹ and the kon was 245000 M⁻¹ s⁻¹. In assay [4], this molecule gave a Kd of 4.9 nM, a koff of 0.00121 s⁻¹ and a kon of 245000 M⁻¹ s⁻¹.

B3: 2F10 human anti-CMV antibody (antibody, V domains shown)
VH: QVHLVESGGGVVQPGRALRLSCAATGFTFSNHGIHWVRQAPGKGLEWLAVISSDGDDDRYADSVKGRFSVSRDNSKNTVHLQMNGLRPDDTAIYFCARDGRCGEPKCYSGLPDYWGRGTLVTVSS
VL: EIVLTQSPATLSLSPGDRATLSCRASQSVGGYLAWYQQKPGQAPRLLLYDASNRATGIPARFSGSGSGTDFTLTISSLEPEDFALYYCLQRNTWPPLTFGGGTKVEIKR
notes: Recombinant human IgG, gamma heavy and kappa light chain, made by transient transfection of 293 cells; also called mAb A-2F10
Consider B3, for which the “neutralization of GPCMV V545/82 entry into JH4 cells; highest concentration tested without effect” value in assay [1] was greater than 300 ng/mL. In assay [2], this molecule yielded a Kd of 1.98 nM, a dissociation rate constant (koff) of 0.00111 s⁻¹ and a kon of 562000 M⁻¹ s⁻¹. In assay [5], this molecule returned a dissociation constant Kd of 1.98 nM, an off-rate (koff) of 0.00111 s⁻¹ and a kon of 562000 M⁻¹ s⁻¹.

B4: 4P12 human anti-CMV antibody (antibody, V domains shown)
VH: QVQLVESGGGVIQPGRSLRLSCVASKFIFSNHGIHWVRQAPGKGLEWVAVISKDGTNAHYADSVRGRFSISRDNSKDTVFLEMRSLRPEDTAVYYCAREGRCIEENCYSGQIDYWGQGSLVTVSS
VL: EILLTQSPATLSLSPGERATLSCRASQSVGRYMAWYQQRPGQAPRLLIYDASIRATGIPARFSGSGSGTDFTLTISSLQPEDFAIYYCQQRSSWPPLTFGGGTKVEIKR
notes: Recombinant human IgG, gamma heavy and kappa light chain; also called mAb D-4P12
As for B4, in assay [1], the “neutralization of GPCMV V545/82 entry into JH4 cells; highest concentration tested without effect” value was greater than 300 ng/mL. In assay [2], this molecule came in with a Kd of 10.9 nM, a koff of 0.0019 s⁻¹ and a kon of 175000 M⁻¹ s⁻¹. In assay [6], the Kd was found to be 10.9 nM, the koff was 0.0019 s⁻¹ and the on-rate (kon) was 175000 M⁻¹ s⁻¹.
